Laboratory results published in article PMC5258196 (Biochemistry, 2016).
Values belong to the molecule of their own block, whether it stands above or below them.

How the values were obtained:
[1] = target: GrxS14 (Arabidopsis thaliana) (UniProt Q84Y95); details: cited from earlier work
[2] = target: T1, E. coli monothiol glutaredoxin Grx4 (E. coli, UniProt P0AC69 1-115); test: ITC
T1 sequence (looked up): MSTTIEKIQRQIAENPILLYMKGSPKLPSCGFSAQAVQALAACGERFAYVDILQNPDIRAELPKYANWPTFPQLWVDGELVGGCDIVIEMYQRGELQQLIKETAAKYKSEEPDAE

[3] = target: T2, S. cerevisiae monothiol glutaredoxin Grx3 (S. cerevisiae, UniProt Q03835 1-250); test: ITC
T2 sequence (looked up): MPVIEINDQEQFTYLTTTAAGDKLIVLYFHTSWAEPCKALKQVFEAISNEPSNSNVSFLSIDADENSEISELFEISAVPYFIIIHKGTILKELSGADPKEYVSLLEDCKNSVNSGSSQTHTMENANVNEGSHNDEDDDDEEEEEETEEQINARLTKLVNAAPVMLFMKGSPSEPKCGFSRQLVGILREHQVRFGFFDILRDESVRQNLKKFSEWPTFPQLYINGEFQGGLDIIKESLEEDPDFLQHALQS

GrxS14 (Arabidopsis thaliana), sequence (Q84Y95 64-173): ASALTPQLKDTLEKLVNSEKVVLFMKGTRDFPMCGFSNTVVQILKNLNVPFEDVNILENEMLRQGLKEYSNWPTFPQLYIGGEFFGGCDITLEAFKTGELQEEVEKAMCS

Molecule: BolA1 (from UniProt Q682I1)
- Kd [1]: 7 µM

- Kd [2]: 3.4 ± 0.1 µM
- dH [2]: -5.9 ± 0.1 kcal/mol
- stoichiometry N [2]: 0.7 ± 0.01 sites
B1: E. coli BolA-like protein IbaG (natural protein, UniProt P0A9W6 1-84, looked up)
chain: MENNEIQSVLMNALSLQEVHVSGDGSHFQVIAVGELFDGMSRVKKQQTVYGPLMEYIADNRIHAVSIKAYTPAEWARDRKLNGF

- Kd [2]: 4.6 ± 0.9 µM
- dH [2]: -3.1 ± 0.1 kcal/mol
- stoichiometry N [2]: 0.97 ± 0.03 sites
B2: E. coli BolA (natural protein, UniProt P0ABE2 1-105, looked up)
chain: MMIRERIEEKLRAAFQPVFLEVVDESYRHNVPAGSESHFKVVLVSDRFTGERFLNRHRMIYSTLAEELSTTVHALALHTYTIKEWEGLQDTVFASPPCRGAGSIA

- Kd [3]: 20.8 ± 6.6 µM
- dH [3]: -10.1 ± 5.4 kcal/mol
- stoichiometry N [3]: 0.4 ± 0.19 sites
B3: S. cerevisiae Fra2 (natural protein, UniProt P53082 1-120, looked up)
chain: MTGERIEKVKINDEFAKSHFLTTQWRETKRQRHYKMPVTEQGLRERIESAIPQVYHIIVTDLSYGCGQSFDIVVVSDFFQGKSKLMRSRAVNKAVKEELQEIHAFSCKCYTEEEWSKIVV
